B1: Azoarcus group I ribozyme (parent)
chain: GUGCCUUGCGCCGGGAAACCACGCAAGGGAUGGUGUCAAAUUCGGCGAAACCUAAGCGCCCGCCCGGGCGUAUGGCAACGCCGAGCCAAGCUUCGGCGCCUGCGCCGAUGAAGGUGUAGAGACUAGACGGCACCCACCUAAGGCAAACGCUAUGGUGAAGGCAUAGUCCAGGGAGUGGCGAAAGUCACACAAACCGG

Variants of: B1
Assay: reverse-splicing fitness (ratio to wild type); higher = more active; in vitro selection; Mg2+ level not given
Method in brief: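 An in vitro group I ribozyme library with randomized positions was T7-transcribed and gel-purified. In triplicate, 10 pmol RNA in EPPS pH 7.5 was reacted with 50 pmoles of a 30-nt RNA substrate for 1 h at 37 °C across several added MgCl2 levels (1–48 mM), then stopped with EDTA. Products were reverse transcribed from a substrate-complementary primer, PCR-amplified and sequenced (HiSeq 4000). Fitness is a variant's read proportion after selection over that before, normalised to wild type.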

Point of comparison: C82G A111G A120G A145U C150A C169U U176G, reverse-splicing fitness 0.00582. Against it:
- C82G A111G A120G C150G C169U — higher, 0.0094
- C82G A111G A120G C150G C169G — higher, 0.00788
- C82G A111G A120G C150G C169A — higher, 0.00983
- C82G A111G A120G A145U C150A C169G U176C — higher, 0.0174
- C82G A111G A120G A145U C150A C169G U176G — lower, 0.00454
- C82G A111G A120G A145U C150A C169G U176A — higher, 0.017
- C82G A111G A120G C150A C169G U176G — higher, 0.00621
- C82G A111G A120G C150A C169G U176C — higher, 0.0263
- C82G A111G A120G C150A C169G U176A — higher, 0.0239
- C82G A111G A120G A145U C150G C169U U176G — lower, 0.00523
- C82G A111G A120G A145U C150G C169U U176C — higher, 0.0149
- C82G A111G A120G A145U C150G C169U U176A — higher, 0.0117
- C82G A111G A120G C169G U176G — lower, 0.00487
- C82G A111G A120G C169G U176C — higher, 0.0232
- C82G A111G A120G C169G U176A — higher, 0.0194
- C82G A111G A120G A145U C150A C169U U176C — higher, 0.0177
- C82G A111G A120G A145U C150A C169U U176A — higher, 0.0196
- C82G A111G A120G A145U C150A C169G — higher, 0.00924
- C82G A111G A120G A145U C150A C169U — higher, 0.00794
- C82G A111G A120G A145U C150A C169A — higher, 0.0096
- C82G A111G A120G A145U C150G U176C — higher, 0.0158
- C82G A111G A120G A145U C150G U176A — higher, 0.00801
- C82G A111G A120G A145U C150G U176G — lower, 0.00436
- C82G A111G A120G A145G C150U C169A U176A — higher, 0.0163
- C82G A111G A120G A145G C150U C169A U176C — higher, 0.0177
- C82G A111G A120G A145G C150U C169A U176G — higher, 0.00616
- C82G A111G A120G C150U U176G — higher, 0.00986
- C82G A111G A120G C150U U176A — higher, 0.012
- C82G A111G A120G C150U U176C — higher, 0.0211
- C82G A111G A120G A145G C150U C169G U176G — lower, 0.00532
- C82G A111G A120G A145G C150U C169G U176C — higher, 0.0201
- C82G A111G A120G A145G C150U C169G U176A — higher, 0.0139
- C82G A111G A120G C169U U176C — higher, 0.0198
- C82G A111G A120G C169U U176G — higher, 0.00595
- C82G A111G A120G C169U U176A — higher, 0.0199
- C82G A111G A120U — higher, 0.0726
- C82G A111G A120G A145G C150U C169U U176G — higher, 0.00668
- C82G A111G A120G A145G C150U C169U U176A — higher, 0.0177
- C82G A111G A120G A145G C150U C169U U176C — higher, 0.0177
- C82G A111G A120G C169A U176A — higher, 0.022
- C82G A111G A120G C169A U176G — lower, 0.00429

— the RNAGym collection of RNA variant scans (doi:10.1093/molbev/msab373)
